Blank lines part the entries; values can stand above or below the binder they belong to.
Legend:
[1] = molecular target: T1, PRMT5/biotinylated WDR77 complex (UniProt O14744 1-637; Q9BQA1 1-342, biotin (site not stated)); test: FRET or BRET; TR-FRET equilibrium binding: adaptors labeled by BODIPY-maleimide titrated into PRMT5/biotinylated WDR77 incubated with terbium-coupled streptavidin; conditions: both partners purified
T1 construct: PRMT5 (protein arginine methyltransferase 5); Held by terbium-coupled streptavidin in the TR-FRET assay; copies: 4 + 4
T1 sequence (O14744 whole entry, chain 1 of 2): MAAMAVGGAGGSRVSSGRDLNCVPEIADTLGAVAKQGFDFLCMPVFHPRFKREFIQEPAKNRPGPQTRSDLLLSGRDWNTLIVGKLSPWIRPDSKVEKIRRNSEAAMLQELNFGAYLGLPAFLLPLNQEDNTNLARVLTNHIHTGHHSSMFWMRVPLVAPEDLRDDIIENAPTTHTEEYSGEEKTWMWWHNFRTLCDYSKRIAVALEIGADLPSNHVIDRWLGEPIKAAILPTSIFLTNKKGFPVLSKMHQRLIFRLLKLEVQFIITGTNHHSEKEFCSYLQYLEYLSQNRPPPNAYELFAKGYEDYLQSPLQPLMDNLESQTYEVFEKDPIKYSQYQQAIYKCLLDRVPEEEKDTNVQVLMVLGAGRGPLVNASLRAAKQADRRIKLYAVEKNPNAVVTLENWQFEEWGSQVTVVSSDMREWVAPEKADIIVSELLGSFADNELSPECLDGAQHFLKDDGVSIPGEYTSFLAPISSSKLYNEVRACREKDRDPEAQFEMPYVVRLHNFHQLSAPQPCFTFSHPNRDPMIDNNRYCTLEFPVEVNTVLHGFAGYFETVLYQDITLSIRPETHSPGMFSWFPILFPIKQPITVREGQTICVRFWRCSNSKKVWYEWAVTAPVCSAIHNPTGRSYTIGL
T1 sequence (Q9BQA1 whole entry, chain 2 of 2): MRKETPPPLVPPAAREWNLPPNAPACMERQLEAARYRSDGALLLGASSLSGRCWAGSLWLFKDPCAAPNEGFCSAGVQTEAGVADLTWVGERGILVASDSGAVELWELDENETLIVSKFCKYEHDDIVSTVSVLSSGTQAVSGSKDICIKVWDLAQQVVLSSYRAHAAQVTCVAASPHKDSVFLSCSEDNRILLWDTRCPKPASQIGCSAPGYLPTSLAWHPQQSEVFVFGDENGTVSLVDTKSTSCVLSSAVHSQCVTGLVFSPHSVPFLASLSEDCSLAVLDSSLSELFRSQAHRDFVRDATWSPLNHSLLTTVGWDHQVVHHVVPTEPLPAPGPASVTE

[2] = molecular target: T1, PRMT5/biotinylated WDR77 complex; test: FRET or BRET; TR-FRET displacement: unlabeled pICln, RIOK1 and ΔPBM constructs titrated to displace BODIPY-labeled pICln tracer from PRMT5/WDR77; conditions: both partners purified

Kd [1]: 32.5 ± 3.8 nM
B1: BODIPY-labeled pICln (natural protein, UniProt P54105 1-237, looked up)
chain: MSFLKSFPPPGPAEGLLRQQPDTEAVLNGKGLGTGTLYIAESRLSWLDGSGLGFSLEYPTISLHALSRDRSDCLGEHLYVMVNAKFEEESKEPVADEEEEDSDDDVEPITEFRFVPSDKSALEAMFTAMCECQALHPDPEDEDSDDYDGEEYDVEAHEQGQGDIPTFYTYEEGLSHLTAEGQATLERLEGMLSQSVSSQYNMAGVRTEDSIRDYEDGMEVDTTPTVAGQFEDADVDH
modifications: BODIPY (labeled by BODIPY-maleimide; site not stated)
notes: pICln, PRMT5 substrate adaptor with a PBM peptide in its C-terminal region; also called BODIPY-pICln; source: LBSTR Escherichia coli (Kerafast, EC1002), purified

IC50 [2]: 69.5 ± 3.3 nM
B2: pICln (unlabeled) (natural protein, UniProt P54105 1-237, looked up)
chain: B1 chain
notes: pICln, PRMT5 substrate adaptor with a PBM peptide in its C-terminal region; Used free in the displacement assay and as a member of the 6S complex in the cryo-EM sample; only the PBM peptide is seen in the map; also called pICIn; source: LBSTR Escherichia coli (Kerafast, EC1002), purified

From publication PMC11847536 (The Journal of Biological Chemistry, 2025)
